To fix the notation:
B1: Haloalkane dehalogenase, D4Z2G1 (parent)
chain: MSLGAKPFGEKKFIEIKGRRMAYIDEGTGDPILFQHGNPTSSYLWRNIMPHCAGLGRLIACDLIGMGDSDKLDPSGPERYAYAEHRDYLDALWEALDLGDRVVLVVHDWGSALGFDWARRHRERVQGIAYMEAIAMPIEWADFPEQDRDLFQAFRSQAGEELVLQDNVFVEQVLPGLILRPLSEAEMAAYREPFLAAGEARRPTLSWPRQIPIAGTPADVVAIARDYAGWLSESPIPKLFINAEPGALTTGRMRDFCRTWPNQTEITVAGAHFIQEDSPDEIGAAIAAFVRRLRPA

The data set covers variants of B1. To be noted: Sphingobium indicum (strain DSM 16413 / CCM 7287 / MTCC 6362 / UT26 / NBRC 101211 / UT26S); pH 7.5; Thermal; fluorescence; Na-Hepes 50 mM; reversible: no; structure 1MJ5; whole UniProt chain shown.

Several values for one entry are separate records, joined by “and”; a condition that tells them apart may be missing. Equal entries are not always repeated.

The results in this text go back to FireProtDB (doi:10.1002/cbic.201402128).

For orientation: Tm means the temperature at which the thermal transition is half complete.

For the variant A296R, the Tm was 50.5 °C and the “change of melting temperature, mutant - wild type (higher = more stable)” value (shortened to “change of melting temperature, mutant”) was -0.5 °C.
As for A296H, the Tm is 50 °C and the “change of melting temperature, mutant” value was -1 °C.
For A271V, the Tm stood at 62 °C and the “change of melting temperature, mutant” value amounted to 11 °C.
As for A271I, the Tm is 60.5 °C and the “change of melting temperature, mutant” value is 9.5 °C.
Take V268C S278C: the Tm is 48.5 °C and 46 °C; the “change of melting temperature, mutant” value is -2.5 °C and -3 °C.
For T264Q, the Tm is 50 °C and the “change of melting temperature, mutant” value is -1 °C.
Turning to A269P, the Tm was found to be 50 °C and the “change of melting temperature, mutant” value is -1 °C.
With Q275P, the Tm turned out to be 48 °C and the “change of melting temperature, mutant” value was -3 °C.
